Source: the supplement of paper PMC9170038

Test system: MS2 coat protein
Experiment: apparent KD of MS2 coat protein; designed switch direction (-1 OFF switch, 1 ON switch): -1; higher = weaker reporter binding
Method in brief: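 For each design, the apparent KD is the median over clusters of curves fitted to normalised cluster fluorescence. Clusters held RNA switches with common flanks, transcribed on Illumina chips by stalled E. coli RNA polymerase. These were titrated with SNAP-549-labelled MS2 coat protein, doubling from 0.7 or 1.5 nM to 3 µM, without input, with 200 uM small-molecule ligand, or with an oligonucleotide input.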

[1] = Eterna round: R95, input ligand: FMN 200 uM
[2] = Eterna round: R95, input ligand: microRNA oligo, concentration not stated
[3] = Eterna round: R95, input ligand: none
[4] = input ligand: microRNA oligo, concentration not stated

Sequence	apparent KD of MS2 coat protein (input ligand: FMN 200 uM) [nM]	apparent KD of MS2 coat protein (input ligand: none) [nM]	apparent KD of MS2 coat protein [1] [nM]	apparent KD of MS2 coat protein [2] [nM]	apparent KD of MS2 coat protein [3] [nM]	apparent KD of MS2 coat protein [4] [nM]
CUUAGGGCGGAGGAUAUGCCGUGGGCGAAUACAGUAGAAGGCCGCACUUGAGGAUCACCCAAGUAUGGUCAAAC [Inusisbeor] (Eterna round: R97, puzzle: Exclusion 6)	15.4	13.1				
AAAUGCAGGUAAAGAUUCUACAUGAGGAUCACCCAUGUGCUCGUCUUAUAAAGUACUAUCACGAAAGUGAUAGUACA [Sensor 3, v1 - 41] (puzzle: Sensor v3, turn-off variant 1)			27.6	268	26.6	
UCAAGCUUUAAGCGUGUGAACAUGAGGAUCACCCAUGUAUUUUAGGUAAUAAGUUCAAUUAUGUAUUCUCGUCUUAU [JR_SWV3TOV1_Sub095] (Eterna round: R96, puzzle: Sensor v3, turn-off variant 1)	61.5	65.4				45.4
UCGUUCCGUGUAGGAUAUUGGCCUCCCUCGGGCCGAGAAGGACAUGAGGAUCACCCAUGUAUGUUAUUAUCGCGCGUGGCGCAU [Design 89] (Eterna round: R96, puzzle: Exclusion NG 1)	113	20.8				14.5
AGCUGUGGCCGAGGAUAUCUGUUCCAUAUAACCGAAAUAUAAUCGGACAUGAGGAUCACCCAUGUAGAGAAGGCGGUCUCAGCA [Eli eng2 - 100] (Eterna round: R96, puzzle: Exclusion NG 2)						18.8
AAAUGACAUGAGGAUCACCCAUGUGGCCCUUAGACUCAUAUCGAGGAUAUCCAGGGCCGGGCCGUGGAGAAGGCGAAUUAAAAU [Edatriusti] (Eterna round: R96, puzzle: Exclusion NG 3)	32.1	40.6				26.1
AGCAUGCUAGGAUAUACGAAACAUUAGGGUUCUUUGUAUAAACAUGAGGAUCACCCAUGUAGAAGGAGCGUGCA [Mat - Exclusion 2 - Mod of Hyphema - D97] (puzzle: Exclusion 2)				40.9		
UCCCAACAUGAGGAUCACCCAUGUAAGGAUAUCCAUGGACGACGGCAUUGUUCCCGGCGGAGAAGGUGCAUGGU [EX1 B.21] (Eterna round: R97, puzzle: Exclusion 1)	46.4	27.6				
AUUUUAUAUGAAGGAUAUACUUAACAUGAGGAUCACCCAUGUGGUGUUGUGAGUGAGUGAGUUUAGUAGAAGGUCAAUUAUUUU [JMF's solution 32] (Eterna round: R96, puzzle: Exclusion NG 2)	781	257				167
CAGCUGAAAGUGAGGAUAUCUAGAGCCUCGGCUCUAGAGAAGGCACAUGAGGAUCACCCAUGUGAUCACAGCUG [BmEx4/7-A2] (Eterna round: R97, puzzle: Brourd's mod of Exclusion 4)	1320	307				
GCAGGCGUCUAGGCUCGUCUUAUUUUGAGAGGAUUGAUAACAUGAGGAUCACCCAUGUUUGUGGGAGAGUUGCAGUG [JR_SV3TOV2_Sub015] (puzzle: Sensor v3, turn-off variant 2)			121	241	143	
GUGAAGUAAGGAUAUAGUGGAAAAGAUAAGGUAUGAGAGUUCUAGAAGGUACAUGAGGAUCACCCAUGUUAGGG [JR_Exclu4_Sub085] (Eterna round: R96, puzzle: Exclusion 4)	324	360				212
AGUAACAGAGGAUAUACUGUUUUAUGUGUUUAUUAUUUUGAACAUGAGGAUCACCCAUGUAGAAGGCUGAAUAA [JMF 90] (puzzle: Exclusion 2)				21.8		
GCAGGAUAAGUCAGGAUAUACCUAUGGAUACAUAGGUAGAAGGGACAUGAGGAUCACCCAUGUUACUCGCCUGC [Fiskers BMX 4 - 74] (puzzle: Brourd's mod of Exclusion 4)				13.6		
UUGUUGUAUGUAGGAUAUGCAUAUUGUUAUUAUGCAGAAGGACAUGAGGAUCACCCAUGUAUAUUAUUAUUAUAUAUUAUAUAU [Title] (Eterna round: R96, puzzle: Exclusion NG 1)						20.9
UGGCUUAGAGGAUAUACAUUGAAUAAGAUUCAUGUAAAACUACAUGAGGAUCACCCAUGUAGAAGGCUAGGCCU [Mat - Exclusion 2 - JL Mod - D73] (Eterna round: R97, puzzle: Exclusion 2)	32.7	17.9				
GAUUAUGCGAGCUUUAGGGACAUGAGGAUCACCCAUGUUCGUCUUAUUGGUCUGGAUACACUGACAUACCUAAAUCU [JMF 60] (puzzle: Sensor v3, turn-off variant 1)			16.8	22.6	18.4	
AAUGAGGGAGGAUAUACAUUCGGCUGUCAACAGCCCUUGGGACAUGAGGAUCACCCAUGUAGAAGGCCCGAUUA [EX2 B.20] (Eterna round: R97, puzzle: Exclusion 2)	365	38.7				
UUCAGUCAUCCUUAUUGUUACAUGAGGAUCACCCAUGUUUGUUUAAUUAAGUUUUGUAAGUUUGUUGUUCGUUUUAU [JR_STOV1_v2_Sub074] (Eterna round: R97, puzzle: Sensor, turn-off variant 1)	154	173				
CCGGAAAAGGAGGAUAUAGGAGUCGAUAGACACCUAGAAGGUCUGACAUGAGGAUCACCCAUGUGUCCUACCGG [Fiskers Ex 6 - 89] (puzzle: Exclusion 6)				20.8		
AGUAACCGUCACGAAAGUGAUGGUUACGCAAGUAAAUGUACAUGAGGAUCACCCAUGUCCUCAAUUGCUCGUCUUAU [Sensor 3 - 52] (puzzle: Sensor v3, turn-off variant 2)			663	167	623	
CCUGCGGACAAAGGAUAUUGCGGUGGCCGGCUCGGCGUACCGAGCCUACAUGAGGAUCACCCAUGUAAGAAGGUUGUCGUUGGU [JL ViennaUCT Qudice mod] (Eterna round: R96, puzzle: Exclusion NG 2)	186	33.5				26.9
AAGUAUAGAGGAUAUAGUGAGUACUACAUGAGGAUCACCCAUGUUCUUCAAAGCGUAUUUCUAGAAGGCUGAUGAA [EX-5 Malc#15] (puzzle: Exclusion 5)			58.4	38.8	51.5	
UUUUAGAGAGGAUAUAUAUUGUGAAACAUGAGGAUCACCCAUGUAAUAAUAUGGAUGAAAAUAGAAGGCUCAUUUA [Mat - Exclusion 5 - JL mod - D7] (puzzle: Exclusion 5)			52.1	62.7	73.6	
UAGAAGUUCAACGAGUGAGACAUGAGGAUCACCCAUGUGGUGGUAGGGAACAAGCUUUUUGCACGUACUUAUGAGGA [JR_SV3TOV1_Sub005] (puzzle: Sensor v3, turn-off variant 1)			368	269	414	
UUGACGGCAGGAUAUACAUGAGGAUCACCCAUGUAAAUUUUUCGUUUAACUUGAAUGUGUAGAAGGGCCAACUU [Ex3 #73] (Eterna round: R97, puzzle: Exclusion 3)	18.6	16.8				
